Source: the Human Domainome abundance scans (Beltran et al. 2025)
± gives the uncertainty stated by the source.

B1: Lysine-specific demethylase 5C, residues 319 to 373; numbered along this chain, P41229 (parent)
chain: AQFIESYVCRMCSRGDEDDKLLLCDGCDDNYHIFCLLPPLPEIPKGVWRCPKCVM
B2: Tripartite motif-containing protein 49C, residues 87 to 133; numbered along this chain, P0CI26 (parent)
chain: SSEEQMCGTHRETKKIFCEVDRSLLCLLCSSSQEHRYHRHRPIEWAA

Variants of: B1
Assay: abundance fitness (aPCA) (normalised: wild type 0, dead -1); higher = more abundant; growth selection in yeast, the domain comes from the species named
Settings: Homo sapiens

Variant | abundance fitness
P38M | -0.388 ± 0.15
I4G | -0.302 ± 0.2
D18T | -0.065 ± 0.12
S13G | 0.074 ± 0.1
I4W | -0.287 ± 0.18
P51C | -0.427 ± 0.19
C12L | -0.344 ± 0.09
E17H | -0.245 ± 0.23
V8Y | -0.157 ± 0.2
D25R | -0.058 ± 0.091
D16F | 0.277 ± 0.17
V54I | 0.017 ± 0.12
I43E | -0.057 ± 0.32
P41F | -0.261 ± 0.15
L37M | 0.054 ± 0.15
L21S | -0.605 ± 0.09
F3T | -0.046 ± 0.17
E5Y | -0.162 ± 0.18
K20I | -0.489 ± 0.19
C12E | -0.797 ± 0.33
L37H | -0.023 ± 0.22
P41G | -0.078 ± 0.097
L23I | -0.156 ± 0.14
K20M | -0.596 ± 0.2
L37N | 0.172 ± 0.19

Variant | abundance fitness
I43N | -0.222 ± 0.25
L37I | -0.043 ± 0.22
W48Q | -0.566 ± 0.17
W48Y | -0.568 ± 0.34
P51M | -0.092 ± 0.16
H32P | -0.853 ± 0.23
C12A | -0.99 ± 0.38
E5N | 0.275 ± 0.19
L37D | 0.122 ± 0.16
R10C | -0.108 ± 0.49
F3D | -0.418 ± 0.36
R49H | -0.134 ± 0.19
S13D | -0.042 ± 0.18
R10T | 0.082 ± 0.29
Y7W | -0.266 ± 0.17
L22F | -0.551 ± 0.24
D28W | -0.244 ± 0.21
G15Y | -0.027 ± 0.11
F34R | 0.067 ± 0.11
G26D | -0.034 ± 0.16
L37Q | -0.108 ± 0.16
V47E | -0.142 ± 0.14
G26W | -0.375 ± 0.2
A1S | -0.244 ± 0.19
L21E | -0.531 ± 0.27

Variant | abundance fitness
C12R | -0.586 ± 0.15
G46L | -0.191 ± 0.11
P39Y | -0.59 ± 0.21
Y7I | -0.023 ± 0.18
E17A | 0.123 ± 0.11
R10P | -0.394 ± 0.29
D25S | -0.062 ± 0.079
F3R | 0.072 ± 0.12
C12G | -0.756 ± 0.24
E42R | -0.072 ± 0.091
D19G | 0.08 ± 0.1
D25T | -0.016 ± 0.1
D16C | -0.115 ± 0.15
Q2Y | -0.053 ± 0.17
C9R | -0.827 ± 0.16
D18S | 0.028 ± 0.093
F3H | -0.095 ± 0.2
R49L | -0.164 ± 0.12
D18Y | -0.284 ± 0.16
C53W | -1.08 ± 0.27
R49S | -0.324 ± 0.13
N30P | -0.088 ± 0.11
N30W | -0.117 ± 0.11
H32M | -1.02 ± 0.16
D18Q | 0.224 ± 0.11

Variant | abundance fitness
V47D | -0.064 ± 0.16
S6Q | -0.409 ± 0.22
D18V | 0.034 ± 0.078
D16M | 0.086 ± 0.13
C12T | -0.683 ± 0.26
D16G | 0.085 ± 0.1
V47A | -0.241 ± 0.13
V47N | -0.052 ± 0.19
N30Y | -0.143 ± 0.15
I4P | -0.118 ± 0.15
V8N | 0.083 ± 0.22
R49W | -0.085 ± 0.31
Y31N | -0.679 ± 0.28
C27S | -0.823 ± 0.14
Y7S | 0.139 ± 0.091
K45P | -0.032 ± 0.14
D18H | 0.324 ± 0.18
E17C | 0.261 ± 0.19
R49D | -0.865 ± 0.34
S6G | -0.042 ± 0.15
K45V | -0.179 ± 0.15
E17Y | -0.285 ± 0.24
Y7H | -0.09 ± 0.16
R49N | 0.268 ± 0.15
I43H | -0.139 ± 0.17

Variant | abundance fitness
G46P | -0.42 ± 0.31
W48A | -0.59 ± 0.11
W48C | -1.15 ± 0.44
C35F | -0.556 ± 0.24
R49E | -0.178 ± 0.17
F34A | -0.162 ± 0.1
D28V | -0.527 ± 0.17
E42V | -0.157 ± 0.14
D28I | 0.327 ± 0.39
H32K | -0.97 ± 0.23
E5P | -0.435 ± 0.21
D18P | 0.176 ± 0.09
D18F | 0.157 ± 0.14
P39I | -0.076 ± 0.19
F3V | 0.042 ± 0.11
V54W | -0.836 ± 0.36
R10D | -0.384 ± 0.33
S13A | -0.231 ± 0.1
I33L | -0.496 ± 0.5
V54F | -0.479 ± 0.24
D18N | -0.087 ± 0.18
P38I | -0.62 ± 0.31
M11K | 0.169 ± 0.13
A1I | 0.146 ± 0.47
P38L | -0.237 ± 0.086

Variant | abundance fitness
L36W | -0.237 ± 0.2
P39E | -0.025 ± 0.16
S6K | -0.295 ± 0.25
L23N | 0.099 ± 0.11
V8M | -0.052 ± 0.15
M55I | -0.346 ± 0.44
E5G | -0.128 ± 0.13
V47Q | 0.208 ± 0.2
W48N | -0.853 ± 0.41
H32G | -1.01 ± 0.19
C50L | -0.702 ± 0.14
D19P | -0.15 ± 0.098
M11A | -0.079 ± 0.096
I4Y | -0.687 ± 0.24
L22N | -0.4 ± 0.14
D28M | -0.411 ± 0.32
K45D | 0.237 ± 0.2
Y31W | -0.364 ± 0.14
E17N | 0.257 ± 0.22
C35N | -0.842 ± 0.43
R49Q | 0.106 ± 0.19
S6F | -0.154 ± 0.14
C12F | -0.731 ± 0.15
K45R | -0.067 ± 0.12
G46K | -0.383 ± 0.21

Variants of: B2
Assay: as above
Settings: Homo sapiens

Variant | abundance fitness
ASEEQMCGTHRETKKIFCEVDRSLLCLLCSSSQEHRYHRHRPIEWAA [S1A] | -0.49 ± 0.19
CSEEQMCGTHRETKKIFCEVDRSLLCLLCSSSQEHRYHRHRPIEWAA [S1C] | -0.79 ± 0.26
ESEEQMCGTHRETKKIFCEVDRSLLCLLCSSSQEHRYHRHRPIEWAA [S1E] | -0.003 ± 0.21
FSEEQMCGTHRETKKIFCEVDRSLLCLLCSSSQEHRYHRHRPIEWAA [S1F] | 0.294 ± 0.23
GSEEQMCGTHRETKKIFCEVDRSLLCLLCSSSQEHRYHRHRPIEWAA [S1G] | -0.526 ± 0.41
LSEEQMCGTHRETKKIFCEVDRSLLCLLCSSSQEHRYHRHRPIEWAA [S1L] | -0.156 ± 0.15
TSEEQMCGTHRETKKIFCEVDRSLLCLLCSSSQEHRYHRHRPIEWAA [S1T] | -0.496 ± 0.19
VSEEQMCGTHRETKKIFCEVDRSLLCLLCSSSQEHRYHRHRPIEWAA [S1V] | -0.121 ± 0.22
YSEEQMCGTHRETKKIFCEVDRSLLCLLCSSSQEHRYHRHRPIEWAA [S1Y] | -0.277 ± 0.22
